The series deals with the molecule itself. The series is described as follows: SEC-MALS under native conditions in PBS; self-association (non-covalent dimer). For orientation: SEC sorts molecules by how far they enter the pores of the column.

B1: mouse IL-2-10/CD25 (mIL2-linker-CD25-linker-IL10) (other)
chain: APTSSPTSSPTSSSTAEAQQQQQQQQHLEQLLMDLQELLSRMENYRNLKLPRMLTFKFYLPKQATELKDLQCLEDELGPLRHVLDLTQSKSFQLEDAENFISNIRVTVVKLKGSDNTFECQFDDESATVVDFLRRWIAFCQSIISTSPQGGGSGGGSGGGSELCLYDPPEVPNATFKALSYKNGTILNCECKRGFRRLKELVYMRCLGNSWSSNCQCTSNSHDKSRKQVTAQLEHQKEQQTTTDMQKPTQSMHQENLTGHCREPPPWKHEDSKRIYHFVEGQSVHYECIPGYKALQRGPAISICKMKCGKTGWTQPQLTCVDEREHHRFLASEESQGSRNSSPESETSCPITTTDFPQPTETTAMTETFVLTMEYKGGGSGGGSGGGSSRGQYSREDNNCTHFPVGQSHMLLELRTAFSQVKTFFQTKDQLDNILLTDSLMQDFKGYLGCQALSEMIQFYLVEVMPQAEKHGPEIKEHLNSLGEKLKTLRMRLRRCHRFLPCENKSKAVEQVKSDFNKLQDQGVYKAMNEFDIFINCIEAYMMIKMKSGGHHHHHH
notes: Under native conditions it is predominately a non-covalent dimer; also called mIL-2-10/CD25; mIL2-10/CD25
With B1, the binding result is “binds”.

(Values after patent publication US20250368707A1 (UNIVERSITY OF MIAMI, published 2025).)
